Results as given in the supplement of paper PMC10567573.

B1: FAM189A2 (parent)
chain: GSEAAVIPLDLGCTQVTQDGDIPN
B2: TOR1AIP2 (parent)
chain: SPGHSSAGQEGEDTLRRRLLAPEA

Variants of: B1
Experiment: protein stability index of a GFP-peptide fusion (GPS, HEK-293T) (PSI 1-6); higher = more stable
Settings: c terminus: a fixed tail appended
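Note: lentivirally expressed fusions sorted by FACS into six bins by GFP to DsRed ratio, PSI derived from sequencing read proportions per bin multiplied by bin number.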

Protein stability index of substitutions, site by site:
P23: C 4.93; D 5.81; A 5.3; M 5.22; I 5.16; H 4.85; Y 4.52; R 4.89; K 5.17; G 5.44; E 5.55; N 5.87; Q 5.3; W 4.07; L 5.25; T 5.5; S 5.3; F 4.35; V 5.29
N24: H 5.28; E 5.28; Q 5.3; V 5.17; Y 4.91; W 4.39; R 4.91; I 4.51; F 4.53; P 5.14; D 5.42; K 5.03; C 5.25; A 5.27; T 5.54; S 5.51; G 5.53; M 4.95; L 4.79

Variants of: B2
Experiment: as above
Settings: c terminus: a fixed tail appended

Protein stability index: each site, then its substitutions
H4: T 4.14; G 4.08; V 3.81; K 3.52; F 4.3; Q 3.82; P 4.49; S 4.39; L 3.85; N 4.13; A 4.22; Y 3.84; C 3.71; E 4.15; M 3.38; R 3.76; I 3.92; D 4.89; W 3.98
S1: K 4.47; R 4.05; F 2.59; N 3.13; G 3.81; A 5.07; Q 4.02; L 4.91; Y 2.21; M 4.49; E 5.47; I 4.92; C 3.46; D 5.21; H 4.57; V 4.59; T 4.88; P 5.3; W 4.53
R16: K 4.79; H 5.38; M 4.6; G 5.41; D 5.68; I 5.06; E 5.46; A 5.37; L 4.61; C 5.14; F 4.71
A7: G 4.21; P 3.42; L 3.73; W 3.89; E 4.47; D 4.56; T 4.18; Y 3.9; M 3.79; F 4.16; N 3.76; R 3.82; I 3.92; C 3.45; K 3.66; H 3.77; S 4.01; Q 4.24; V 4.25
S6: W 3.97; A 4.36; V 3.24; E 4.51; P 4.26; G 3.66; Y 3.73; D 4.48; H 4.23; Q 4.65; I 3.42; T 4.36; N 3.75; K 3.97; F 2.94; L 4.18; M 4.02; R 4.46; C 3.9
G11: F 3.49; R 4.64; A 4; M 4.15; N 4.46; Q 4.38; E 4.6; S 4.48; I 3.82; T 4.62; K 4.5; P 4.05; Y 3.39; H 4.07; L 4.13; D 4.64; V 4.04; C 3.88; W 3.6
E10: D 3.94; M 3.58; K 3.27; W 3.42; F 3.68; S 4.06; A 3.75; L 3.31; Y 3.51; C 2.67; N 3.72; Q 3.88; P 3.94; V 4.04; H 3.61; T 3.81; I 3.63; R 3.62; G 3.91
L15: M 4.79; S 5.16; R 5.01; P 5.23; Y 4.89; D 5.7; E 5.35; K 4.96; V 4.93; F 4.3; I 4.53; A 5.47; Q 4.98; H 5.13; G 5.44; N 5.49; W 3.92; C 3.98; T 5.31
E12: N 3.81; W 3.19; K 3.98; R 3.84; V 3.22; L 3.33; I 3.73; C 4; Q 3.38; G 3.73; F 3.1; A 3.48; S 3.3; D 3.97; P 3.59; M 3.53; T 3.6; H 3.73; Y 3.22
D13: M 3.06; C 4.05; A 3.19; W 2.96; G 4.1; S 3.67; K 4.52; P 4.53; V 4.15; R 3.32; H 4.31; T 3.65; L 3.77; F 3.02; N 4.27; I 3.88; Y 2.8; Q 4.09; E 4.73
Q9: K 4.02; Y 3.68; I 4.08; M 3.43; V 3.98; P 4.53; C 3.22; F 4.11; L 3.58; N 4.05; G 2.94; E 4.31; A 4.35; R 3.5; H 3.83; S 4.24; T 3.96; D 3.84; W 3.04
P2: S 3.93; W 2.65; D 4.86; I 2.5; M 3.75; Q 4.47; G 4.22; F 2.53; C 2.03; E 4.43; Y 2.24; R 4.47; A 2.22; T 3.23; V 2.75; N 4.42; L 2.43; K 4.44; H 4.2
G8: R 4; C 4.46; V 4.43; M 4.05; F 3.34; P 4.53; S 4.42; K 4.19; N 4.05; L 4.21; E 4.5; A 4.24; T 4.61; Q 4.33; H 4.69; I 4.53; D 4.51; Y 3.79; W 4.19
S5: P 4.14; D 4.75; R 4; A 3.84; N 4.42; V 4.3; M 4.49; L 3.9; I 3.78; F 4; W 4.63; Y 4.09; Q 4.64; K 3.86; T 4.46; H 4.35; E 4.64; C 3.37; G 4.11
T14: E 4.4; V 3.97; L 4.84; H 4.33; A 4.06; N 3.63; D 4.18; R 4.65; G 4.41; C 2.67; W 4.5; S 3.08; K 4.94; P 4.33; M 4.34; Y 4.2; F 4.39; Q 4.11; I 4.42
G3: S 4.02; R 2.93; Y 3.83; T 3.59; F 3.85; P 4.69; D 4.73; W 4.3; V 3.24; M 4.48; A 3.74; H 4.21; K 3.67; E 4.65; Q 4.46; I 3.51; N 4.16; L 3.78; C 3.32
